Measurements taken from patent US20120283182A1.
One block for each molecule: values may come before it. Ends that are not written are not given here.

Columns and labels:
[1] = target: 'd' subunit of F1Fo ATP synthase (dF1Fo) (rat) (UniProt P31399); test: co-IP with anti-dF1Fo antisera from NCM mitochondria; Western blot densitometry
[2] = target: 'd' subunit of F1Fo ATP synthase (dF1Fo) (rat) (UniProt P31399); test: cell-based or functional assay
[3] = system: adult rat cardiac ventricular F1Fo ATPase holo-enzyme
[4] = target: delta protein kinase C (δPKC) (rat) (UniProt P09215); test: PKC overlay assay: facilitation of δPKC binding to blotted dF1Fo by the peptide; densitometry
[5] = target: delta protein kinase C (δPKC) (rat) (UniProt P09215); test: PKC overlay assay: inhibition of δPKC binding to blotted dF1Fo by the peptide; densitometry

Sequence of 'd' subunit of F1Fo ATP synthase (dF1Fo) (rat) (P31399 2-161 limits assumed): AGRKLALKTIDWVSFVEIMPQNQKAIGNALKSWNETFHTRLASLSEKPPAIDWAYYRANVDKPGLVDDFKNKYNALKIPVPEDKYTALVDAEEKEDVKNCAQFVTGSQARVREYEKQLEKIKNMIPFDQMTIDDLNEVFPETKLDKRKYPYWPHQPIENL

fold increase of δPKC-dF1Fo co-IP over 3 nM 4-β PMA-induced levels [1]: 3.4 fold
further inhibition of F1Fo ATPase activity in NCM mitochondria (high glucose plus hypoxia) [2]: 28%
further inhibition of F1Fo ATPase activity in NCMs (high glucose plus hypoxia) [2]: 29%
inhibition of F1Fo ATPase activity in NCM mitochondria (high glucose) [2]: 56.1%
inhibition of F1Fo ATPase activity in NCM mitochondria (hypoxia) [2]: 10 fold
inhibition of F1Fo ATPase activity in NCMs (high glucose) [2]: 54%
inhibition of F1Fo ATPase activity in rat heart mitochondria (ischemia/reperfusion) [2]: 2.2 fold
inhibition of baseline F1Fo ATPase activity in NCMs (4 hr hypoxia) [2]: 75.1%
Molecule: delta protein kinase C (δPKC) (from UniProt P09215 1-673) (enzyme)

Molecule: recombinant δPKC purified from sf9 cells
oligomycin-sensitive F1Fo ATPase activity, in vitro [3]: recombinant δPKC profoundly inhibited F1Fo ATPase activity in the presence or absence of the PKC activators DG and PS

EC50 [4]: 300 µM
Molecule: RVREYEKQLEKIKNMI [δPKC-dF1Fo facilitator peptide …]

IC50 [5]: 300 µM
Molecule: AGRKLALKTIDWVSF (not fully specified) [δPKC-dF1Fo inhibitor peptide …]
